Here are results for 1 substance from patent US20040043468A1.

In this assay the target is eIF4E. The experiment in a line: cell-based or functional assay.

Consider “dominant negative form of the eIF4E binding protein 4E-BP1 (from UniProt Q13541 1-118)”, for which the Photinus luciferase activity from the monocistronic PM construct in B104 cells, as a percentage of the activity with a control expression plasmid was 45 % of control and the Photinus luciferase activity from the β-globin 5′ UTR monocistronic construct in B104 cells, as a percentage of the activity with a control expression plasmid was 43 % of control.
